Data taken from the supplement of paper PMC10126150.
± gives the standard deviation of the averaged measurements.

Tested on: ATP
Assay: switch fluorescence ratio, 500 uM ATP over buffer (Cy3 cluster intensity, sum of 5 cycles each) (fold (ratio)); higher = stronger signal-on switching upon ATP binding; sequences stand for … in TCGTCGGCAGCGTCAGATGTGTATAAGAGACAGTTTTTTTTTTTTTTTTTTTTTTTTT…TC
Settings: aptamer strand: ATP DNA aptamer (quencher-CACCTGGGGGAGTATTGCGGAGGAAGG + anchor), 100 nM annealed; ATP concentration: 500 uM
Method in brief: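 Switching-strand clusters labelled with Cy3 on a modified Illumina MiSeq flow-cell were annealed to 100 nM quencher-labelled ATP aptamer, imaged in selection buffer, and re-imaged after 15 min with 500 uM ATP at 22 °C. This was done over five cycles with NaOH stripping and re-annealing in between. The fluorescence ratio is summed target-cycle over summed buffer-cycle Cy3 intensity per cluster, averaged per switch-domain sequence, excluding clusters outside 100-1000 RFU.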
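Note: ATP exposure 15 min at 22 °C before imaging.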

| Sequence | switch fluorescence ratio |
| --- | --- |
| GGGGGCTAAG | 1.026 ± 0.0039 |
| GGGGGCTATG | 0.99 ± 0.015 |
| GGGGGCTTAG | 0.988 ± 0.038 |
| GGGGGGACGC | 1.02 ± 0.013 |
| GGGGGGACTA | 1.03 ± 0.031 |
| GGGGGGAGCC | 0.996 ± 0.015 |
| GGGGGGATGA | 0.992 ± 0.024 |
| GGGGGGCAAA | 1 ± 0.015 |
| GGGGGGCAGA | 1 ± 0.029 |
| GGGGGGCATT | 0.99 ± 0.033 |
| GGGGGGCGCA | 1.02 ± 0.038 |
| GGGGGGCGCG | 1.01 ± 0.025 |
| GGGGGGCTAG | 1 ± 0.058 |
| GGGGGGGCAA | 1.24 ± 0.48 |
| GGGGGGGCCA | 1.01 ± 0.041 |
| GGGGGGGCTT | 0.998 ± 0.031 |
| GGGGGGGGT | 1 ± 0.02 |
| GGGGGGGGTA | 1 ± 0.044 |
| GGGGGGTAGT | 1.02 ± 0.067 |
| GGGGGGTATT | 0.987 ± 0.037 |
| GGGGGGTGGG | 0.996 ± 0.039 |
| GGGGGGTTCT | 1.01 ± 0.042 |
| GGGGGGTTGT | 1.03 ± 0.17 |

| Sequence | switch fluorescence ratio |
| --- | --- |
| GGGGGTAAAG | 1.01 ± 0.022 |
| GGGGGTACCG | 0.977 ± 0.021 |
| GGGGGTACCT | 1.02 ± 0.019 |
| GGGGGTACGC | 1.03 ± 0.028 |
| GGGGGTACTT | 1 ± 0.03 |
| GGGGGTATGC | 1.05 ± 0.15 |
| GGGGGTCACA | 0.989 ± 0.029 |
| GGGGGTCATG | 1.02 ± 0.073 |
| GGGGGTCCGT | 1 ± 0.025 |
| GGGGGTGAAA | 0.987 ± 0.011 |
| GGGGGTGACC | 1.02 ± 0.025 |
| GGGGGTGAGG | 1.01 ± 0.043 |
| GGGGGTGAGT | 1.02 ± 0.012 |
| GGGGGTGATC | 0.979 ± 0.024 |
| GGGGGTGCCT | 0.986 ± 0.064 |
| GGGGGTGCGG | 0.977 ± 0.044 |
| GGGGGTGGGA | 1 ± 0.019 |
| GGGGGTGTAG | 1.008 ± 0.0053 |
| GGGGGTTCAG | 0.978 ± 0.04 |
| GGGGGTTGAT | 0.991 ± 0.069 |
| GGGGGTTGGA | 1.01 ± 0.032 |
| GGGGGTTTAC | 1.01 ± 0.013 |
| GGGGGTTTAT | 1.01 ± 0.017 |

| Sequence | switch fluorescence ratio |
| --- | --- |
| GGGGGTTTTT | 0.997 ± 0.033 |
| GGGGTAAAGG | 1.04 ± 0.11 |
| GGGGTAAATT | 1 ± 0.039 |
| GGGGTAACGT | 0.983 ± 0.02 |
| GGGGTAAGGA | 1 ± 0.021 |
| GGGGTAATTG | 1.01 ± 0.019 |
| GGGGTACCGG | 1.02 ± 0.032 |
| GGGGTACGCA | 1.02 ± 0.015 |
| GGGGTACGGG | 1.05 ± 0.024 |
| GGGGTACGGT | 1 ± 0.018 |
| GGGGTAGCGG | 0.92645 ± 0.0002 |
| GGGGTAGGGT | 0.997 ± 0.032 |
| GGGGTAGGTA | 0.96 ± 0.038 |
| GGGGTAGTAC | 1.03 ± 0.026 |
| GGGGTAGTTG | 0.99 ± 0.028 |
| GGGGTATATC | 1 ± 0.024 |
| GGGGTATATT | 0.9938 ± 0.0062 |
| GGGGTATGCC | 1.01 ± 0.027 |
| GGGGTATGGC | 1.03 ± 0.023 |
| GGGGTATGTA | 0.987 ± 0.055 |
| GGGGTCACTA | 0.9559 ± 0.009 |
| GGGGTCAGAC | 1 ± 0.022 |
| GGGGTCAGGG | 1.02 ± 0.026 |

| Sequence | switch fluorescence ratio |
| --- | --- |
| GGGGTCATGC | 0.97 ± 0.041 |
| GGGGTCGCTG | 0.965 ± 0.013 |
| GGGGTCGGCC | 0.995 ± 0.018 |
| GGGGTCGTCA | 1.04 ± 0.0072 |
| GGGGTCGTCT | 1.02 ± 0.015 |
| GGGGTCTAAT | 0.999 ± 0.048 |
| GGGGTCTGAG | 0.989 ± 0.019 |
| GGGGTCTTAT | 0.996 ± 0.038 |
| GGGGTGAAGC | 1.02 ± 0.036 |
| GGGGTGAAT | 1.01 ± 0.021 |
| GGGGTGAC | 1.0027 ± 0.00099 |
| GGGGTGAGAA | 1.02 ± 0.046 |
| GGGGTGAGCC | 0.978 ± 0.017 |
| GGGGTGAGGT | 0.997 ± 0.016 |
| GGGGTGCACG | 0.988 ± 0.051 |
| GGGGTGCCTT | 1.037 ± 0.0021 |
| GGGGTGCGCG | 0.968 ± 0.025 |
| GGGGTGCGGG | 0.99 ± 0.032 |
| GGGGTGGTAG | 1.01 ± 0.012 |
| GGGGTGGTGG | 0.9888 ± 0.007 |
| GGGGTGGTTG | 0.986 ± 0.036 |
| GGGGTGTATA | 1 ± 0.045 |
| GGGGTGTATT | 0.984 ± 0.025 |

| Sequence | switch fluorescence ratio |
| --- | --- |
| GGGGTGTCTT | 0.992 ± 0.031 |
| GGGGTGTGCG | 0.9883 ± 0.0051 |
| GGGGTGTTCA | 0.999 ± 0.047 |
| GGGGTGTTGG | 1.01 ± 0.019 |
| GGGGTTAGCG | 0.991 ± 0.021 |
| GGGGTTAGTT | 0.993 ± 0.023 |
| GGGGTTATAA | 0.998 ± 0.043 |
| GGGGTTATCG | 0.99 ± 0.029 |
| GGGGTTATCT | 1.01 ± 0.026 |
| GGGGTTATTA | 0.992 ± 0.017 |
| GGGGTTCACG | 0.988 ± 0.005 |
| GGGGTTCCGT | 1 ± 0.025 |
| GGGGTTCGGG | 0.992 ± 0.017 |
| GGGGTTCGTC | 1 ± 0.044 |
| GGGGTTCTCG | 1.001 ± 0.0031 |
| GGGGTTCTGC | 0.952 ± 0.039 |
| GGGGTTGCTG | 1 ± 0.024 |
| GGGGTTGGCT | 0.995 ± 0.03 |
| GGGGTTGTGT | 0.996 ± 0.026 |
| GGGGTTGTTA | 0.988 ± 0.021 |
| GGGGTTTAGC | 0.996 ± 0.015 |
| GGGGTTTATG | 0.975 ± 0.028 |
| GGGGTTTCTC | 1.02 ± 0.031 |

| Sequence | switch fluorescence ratio |
| --- | --- |
| GGGGTTTTAC | 0.995 ± 0.036 |
| GGGGTTTTCA | 1.022 ± 0.0042 |
| GGGTAAAGAA | 1.01 ± 0.036 |
| GGGTAAATAG | 1.034 ± 0.007 |
| GGGTAAATGC | 1.01 ± 0.1 |
| GGGTAACGGA | 1.03 ± 0.04 |
| GGGTAACTTT | 1.08 ± 0.07 |
| GGGTAAGAG | 1.029 ± 0.0042 |
| GGGTAAGCCC | 0.987 ± 0.015 |
| GGGTAAGCCG | 0.918 ± 0.02 |
| GGGTAAGCTG | 1.04 ± 0.081 |
| GGGTAAGGCT | 1.01 ± 0.032 |
| GGGTAAGGGT | 1.13 ± 0.37 |
| GGGTAATGCA | 1.033 ± 0.0053 |
| GGGTAATGGC | 0.971 ± 0.014 |
| GGGTACAGGA | 0.99686 ± 5.1e-05 |
| GGGTACCTAC | 1.06 ± 0.042 |
| GGGTACGAGT | 0.9314 ± 0.0031 |
| GGGTACGTTC | 1.01 ± 0.023 |
| GGGTACGTTG | 1.01 ± 0.016 |
| GGGTACGTTT | 0.97231 ± 0.00073 |
| GGGTAGAAAA | 1.01 ± 0.043 |
| GGGTAGACAG | 0.9316 ± 0.0069 |

| Sequence | switch fluorescence ratio |
| --- | --- |
| GGGTAGAGTT | 0.9659 ± 0.0052 |
| GGGTAGCTTG | 0.989 ± 0.03 |
| GGGTAGGTTT | 1.02 ± 0.059 |
| GGGTAGTAGT | 0.958 ± 0.035 |
| GGGTAGTCTG | 1 ± 0.049 |
| GGGTATCCTC | 0.986 ± 0.037 |
| GGGTATCCTT | 1.01 ± 0.025 |
| GGGTATGAGC | 0.969 ± 0.04 |
| GGGTATGCGG | 0.978 ± 0.042 |
| GGGTATGCTG | 0.9479 ± 0.0067 |
| GGGTATGGTT | 0.998 ± 0.028 |
| GGGTATGTTG | 0.978 ± 0.032 |
| GGGTATTATT | 1.022 ± 0.0047 |
| GGGTATTGGT | 0.996 ± 0.025 |
| GGGTATTTTA | 0.988 ± 0.057 |
| GGGTCAACGA | 1.03 ± 0.051 |
| GGGTCAGCTG | 0.986 ± 0.036 |
| GGGTCAGTAG | 1.032 ± 0.0087 |
| GGGTCATGTC | 0.934 ± 0.052 |
